Reference: US20240166754A1 (SYNTHEKINE, published 2024)

T1: extracellular domain of mouse IL12RB1 (mIL12Rb1 ECD antigen) (mouse, UniProt Q60837 20-565)
T1 construct: also called murine IL12RB1
T1 sequence: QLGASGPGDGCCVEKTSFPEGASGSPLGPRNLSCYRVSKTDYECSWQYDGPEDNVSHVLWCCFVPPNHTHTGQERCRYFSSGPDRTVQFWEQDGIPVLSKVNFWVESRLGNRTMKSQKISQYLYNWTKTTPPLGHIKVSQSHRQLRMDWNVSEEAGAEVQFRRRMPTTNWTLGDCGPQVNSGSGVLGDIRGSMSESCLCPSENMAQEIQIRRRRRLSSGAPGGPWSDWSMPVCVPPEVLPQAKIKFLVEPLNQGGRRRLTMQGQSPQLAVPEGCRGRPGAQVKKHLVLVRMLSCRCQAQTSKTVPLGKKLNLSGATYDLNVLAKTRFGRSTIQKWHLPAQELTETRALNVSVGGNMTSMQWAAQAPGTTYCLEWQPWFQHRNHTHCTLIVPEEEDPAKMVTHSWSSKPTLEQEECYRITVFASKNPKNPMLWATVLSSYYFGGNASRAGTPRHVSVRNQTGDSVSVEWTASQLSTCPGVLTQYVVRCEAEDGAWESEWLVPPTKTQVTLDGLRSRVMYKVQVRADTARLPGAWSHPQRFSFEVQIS


Molecular target: T1, extracellular domain of mouse IL12RB1 …
Experiment: periplasmic extract ELISA on antigen-coated plate after phage biopanning
Method: Upon completion of the biopanning of Example 3, three 96-well plates of individual phage clones were isolated in order to perform periplasmic extract ELISA (PE-ELISA) on IL12Rb1 coated plates to identify positive VHH binders that selectively bound IL12Rb1. A 96-well plate was coated with IL12Rb1 and PBS under the same conditions. Next, wells were blocked at 37° ° C. for 1 h. Then, 100 μl of extracted antibodies was added to each well and incubated for 1 h. Subsequently, 100 μl of anti-tag polyclonal antibody conjugated to HRP was added to each well and incubated at 37 °C for 1 h. Plates were developed with TMB substrate. The reaction was stopped by the addition of H2SO4. Absorbance at 450 nm was read on a microtiter plate reader. Antibodies with absorbance of the antigen-coated well at least threefold greater than PBS-coated control are VHHs that specifically bind to IL12Rb1. Positive clones were sequenced, and sequences analyzed to identify unique clonotypes.

binding result	Binder
binds	mIL12Rb1_VHH1 (VHH, Camel VHH) VHH: QVQLQESGGGSVQAGGSLRLSCTASGYTYSSAFMAWFRQAPGKEREGVAAIYTRDGGTVYADSVKGRFTISQDNAKNTLYLQMNSLKAEDTAMYYCAAKIPQPGRASLLDSQTYDYWGQGTQVTVSS
binds	mIL12Rb1_VHH6 (VHH, Camel VHH) VHH: QVQLQESGGGSVQAGGSLRLSCTASGYTYSSAFMAWFRQAPGKEREGVAAIYTRDGSPVYADSLKGRFTISQDNAKNTLHLQMNSLKPEDTAMYYCAAKIPEPGRISLLDSQTYDYWGHGTQVTVSS
binds	mIL12Rb1_VHH17 (VHH, Camel VHH) VHH: QVQLQESGGGSVQAGGSLRLSCTASGYTYSSAFMAWFRQAPGKEREGVAAMYTRDGGTVYADSVKGRFTISQDNAKNTLYLQIHTLKAEDTAMYYCAAKIPQPGRASLLDSQTYDYWGQGTQVTVSS
binds	mIL12Rb1_VHH18 (VHH, Camel VHH) VHH: QVQLQESGGGSVQAGGSLRLSCTASGYTYSSAFMAWFRQAPGKEREGVAAMYTRDGGTVYADSVKGRFTISQDNAKNTLYLQMNSLKTEDTAMYYCAAKIPQPGRASLLDSQTYDYWGQGTQVTVSS
binds	mIL12Rb1_VHH22 (VHH, Camel VHH) VHH: QVQLQESGGGSVQAGGSLRLSCTASGYTYSSAFMAWFRQAPGKEREGVAAIYTRDGGTVYADSVKGRFTISQDNAKNILYLQMNSLKAEDTAMYYCAAKIPQPGRASLLDSQTYDYWGQGTQVTVSS
binds	mIL12Rb1_VHH23 (VHH, Camel VHH) VHH: QVQLQESGGGSVQAGGSLRLSCTASGYTYSSAFMAWFRQAPGKEREGVAAIYTRDGGTVYADSVKGRFTISQDNAKNTLYLQMNSLKPEDTAMYYCAAKMPQPGRASLLDSQTYDYWGQGTQVTVSS
binds	mIL12Rb1_VHH2 (VHH, Camel VHH) VHH: QVQLQESGGGSVQAGGSLRLSCAVSGYDYCGYDVRWYRQAPGKEREFVSGIDSDGSTSYADSVKGRFTISQDNAENTSYLHMFSLKPEDTAMYYCKTESPAGESAWCRNFRGMDYWGKGTQVTVSS
binds	mIL12Rb1_VHH7 (VHH, Camel VHH) VHH: QVQLQESGGGSVQAGGSLRLSCAVSGYDYCGYDVRWYRRAPGKEREFVSGIDSDGSTSYADSVKGRFTISQDNAENTSYLHMFSLKPEDTAMYYCKTESPAGESAWCRNFRGMDYWGKGTQVTVSS
binds	mIL12Rb1_VHH14 (VHH, Camel VHH) VHH: QVQLQESGGGSVQAGGSLRLSCAVSGYDYCGYDVRWYRQAPGKEREFVSGINSDGSTSYADSVKGRFTISQDNAENTSYLHMFSLKPEDTAMYYCKTESPAGESAWCRNFRGMDYWGKGTQVTVSS
binds	mIL12Rb1_VHH16 (VHH, Camel VHH) VHH: QVQLQESGGGSVQAGGSLRLSCAVSGYDYCGYDVRWYRQAPGKEREFVSGINSDGSTSYADSVKGRFTISQDNAENTSYLHMFSLKPEDTAMYYCKTEGPAGESAWCRNFRGMDYWGKGTQVTVSS
binds	mIL12Rb1_VHH21 (VHH, Camel VHH) VHH: QVQLQESGGGSVQAGGSLRLSCAVSGYDYCGYDVRWYRRAPGKEREFVSGIDSDGSTSYADSVKGRFTISQDNAENTSYLHMFSLKPEDTAMYYCKTESPAGESAWCRNFRGMDYWGKGTQVTVSS
binds	mIL12Rb1_VHH3 (VHH, Camel VHH) VHH: QVQLQESGGGSVQAGGSLRLSCVASGYSYCGYDMMWYRQAPGKEREFVALITSDYSIRYEDSVEGRFSISRDNAKNTGYLLMSNLTPADTAIYYCKTSTAARESSWCRSRYRVASWGQGTQVTVSS
binds	mIL12Rb1_VHH13 (VHH, Camel VHH) VHH: QVQLQESGGGSVQAGGSLRLSCVASGYSYCGYDMMWYRQAPGKEREFVALITSDYSIRYEDSVEGRFSISRDNAKNTGYLLMSNLTPADTAIYYCKTSTAARESGWCRSRYRVASWGQGTQVTVSS
